Data from IntAct's records for PubMed 25910212.

B1: Beta-crystallin A4 (Homo sapiens), P53673 (parent)
chain: MTLQCTKSAGPWKMVVWDEDGFQGRRHEFTAECPSVLELGFETVRSLKVLSGAWVGFEHAGFQGQQYILERGEYPSWDAWGGNTAYPAERLTSFRPAACANHRDSRLTIFEQENFLGKKGELSDDYPSLQAMGWEGNEVGSFHVHSGAWVCSQFPGYRGFQYVLECDHHSGDYKHFREWGSHAPTFQVQSIRRIQQ
B2: EF-hand domain-containing protein 1 (Homo sapiens), Q5JVL4 (parent)
chain: MVSNPVHGLPFLPGTSFKDSTKTAFHRSQTLSYRNGYAIVRRPTVGIGGDRLQFNQLSQAELDELASKAPVLTYGQPKQAPPADFIPAHVAFDKKVLKFDAYFQEDVPMSTEEQYRIRQVNIYYYLEDDSMSVIEPVVENSGILQGKLIKRQRLAKNDRGDHYHWKDLNRGINITIYGKTFRVVDCDQFTQVFLESQGIELNPPEKMALDPYTELRKQPLRKYVTPSDFDQLKQFLTFDKQVLRFYAIWDDTDSMYGECRTYIIHYYLMDDTVEIREVHERNDGRDPFPLLMNRQRVPKVLVENAKNFPQCVLEISDQEVLEWYTAKDFIVGKSLTILGRTFFIYDCDPFTRRYYKEKFGITDLPRIDVSKREPPPVKQELPPYNGFGLVEDSAQNCFALIPKAPKKDVIKMLVNDNKVLRYLAVLESPIPEDKDRRFVFSYFLATDMISIFEPPVRNSGIIGGKYLGRTKVVKPYSTVDNPVYYGPSDFFIGAVIEVFGHRFIILDTDEYVLKYMESNAAQYSPEALASIQNHVRKREAPAPEAESKQTEKDPGVQELEALIDTIQKQLKDHSCKDNIREAFQIYDKEASGYVDRDMFFKICESLNVPVDDSLVKELIRMCSHGEGKINYYNFVRAFSN

Variants of: B1
Conditions: with ikzf3_human IKZF3, Q9UKT9
Target sequence in this assay (Q9UKT9 whole entry): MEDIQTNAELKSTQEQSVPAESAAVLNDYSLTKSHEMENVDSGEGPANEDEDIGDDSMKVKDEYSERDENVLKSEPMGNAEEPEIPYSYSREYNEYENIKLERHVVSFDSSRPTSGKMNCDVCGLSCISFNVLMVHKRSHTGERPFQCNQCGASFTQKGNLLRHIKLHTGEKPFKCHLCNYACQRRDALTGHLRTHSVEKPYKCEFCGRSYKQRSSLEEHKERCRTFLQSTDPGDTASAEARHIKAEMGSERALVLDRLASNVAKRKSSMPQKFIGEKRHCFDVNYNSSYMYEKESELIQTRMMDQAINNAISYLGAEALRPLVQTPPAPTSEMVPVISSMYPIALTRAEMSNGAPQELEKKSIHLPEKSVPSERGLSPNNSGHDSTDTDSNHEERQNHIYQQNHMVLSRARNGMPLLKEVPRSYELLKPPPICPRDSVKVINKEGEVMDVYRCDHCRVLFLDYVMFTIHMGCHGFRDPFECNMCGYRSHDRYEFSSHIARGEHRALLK

**Q.** For MTLQCTKSAGPWKMVVWDEDGFQGRRHEFTAECPSVLELGFETVRSLKVLSGAWVGFEHAGFQGQQYIPERGEYPSWDAWGGNTAYPAERLTSFRPAACANHRDSRLTIFEQENFLGKKGELSDDYPSLQAMGWEGNEVGSFHVHSGAWVCSQFPGYRGFQYVLECDHHSGDYKHFREWGSHAPTFQVQSIRRIQQ [L69P], which “effect of a mutation on the interaction” value is on record?
**A.** disrupting interaction strength

**Q.** For MTLQCTKSAGPWKMVVWDEDGFQGRRHEFTAECPSMLELGFETVRSLKVLSGAWVGFEHAGFQGQQYILERGEYPSWDAWGGNTAYPAERLTSFRPAACANHRDSRLTIFEQENFLGKKGELSDDYPSLQAMGWEGNEVGSFHVHSGAWVCSQFPGYRGFQYVLECDHHSGDYKHFREWGSHAPTFQVQSIRRIQQ [V36M], which “effect of a mutation on the interaction” value is on record?
**A.** disrupting interaction strength

**Q.** Which “effect of a mutation on the interaction” value does the source give for MTLQCTKSAGPWKMVVWDEDGFQGRRHEFTAECPSVLELGFETVRSLKVLSGAWVGFEHAGFQGQQYILERGEYPSWDAWGGNTAYPAERLTSSRPAACANHRDSRLTIFEQENFLGKKGELSDDYPSLQAMGWEGNEVGSFHVHSGAWVCSQFPGYRGFQYVLECDHHSGDYKHFREWGSHAPTFQVQSIRRIQQ [F94S] here?
**A.** disrupting interaction strength

Variants of: B1
Conditions: with trip6_human TRIP6, Q15654
Target sequence in this assay (Q15654 whole entry): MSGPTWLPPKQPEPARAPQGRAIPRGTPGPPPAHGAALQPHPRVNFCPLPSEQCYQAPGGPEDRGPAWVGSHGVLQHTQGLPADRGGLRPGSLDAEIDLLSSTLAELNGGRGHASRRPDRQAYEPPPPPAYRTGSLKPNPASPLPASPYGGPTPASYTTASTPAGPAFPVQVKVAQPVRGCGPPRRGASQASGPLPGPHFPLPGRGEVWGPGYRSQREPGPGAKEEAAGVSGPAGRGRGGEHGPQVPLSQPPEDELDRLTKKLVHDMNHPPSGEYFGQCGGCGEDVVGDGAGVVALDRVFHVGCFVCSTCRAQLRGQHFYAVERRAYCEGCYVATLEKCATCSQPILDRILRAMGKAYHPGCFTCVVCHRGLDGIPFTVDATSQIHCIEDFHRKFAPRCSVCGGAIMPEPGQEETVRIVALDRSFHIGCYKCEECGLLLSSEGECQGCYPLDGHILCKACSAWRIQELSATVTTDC

**Q.** How did the “effect of a mutation on the interaction” value turn out when MTLQCTKSAGPWKMVVWDEDGFQGRRHEFTAECPSVLELGFETVRSLKVLSGAWVGFEHAGFQGQQYIPERGEYPSWDAWGGNTAYPAERLTSFRPAACANHRDSRLTIFEQENFLGKKGELSDDYPSLQAMGWEGNEVGSFHVHSGAWVCSQFPGYRGFQYVLECDHHSGDYKHFREWGSHAPTFQVQSIRRIQQ [L69P] was run?
**A.** disrupting interaction strength

**Q.** With MTLQCTKSAGPWKMVVWDEDGFQGRRHEFTAECPSMLELGFETVRSLKVLSGAWVGFEHAGFQGQQYILERGEYPSWDAWGGNTAYPAERLTSFRPAACANHRDSRLTIFEQENFLGKKGELSDDYPSLQAMGWEGNEVGSFHVHSGAWVCSQFPGYRGFQYVLECDHHSGDYKHFREWGSHAPTFQVQSIRRIQQ [V36M] as the variant, how does the “effect of a mutation on the interaction” value read?
**A.** disrupting interaction strength

**Q.** How did the “effect of a mutation on the interaction” value turn out when MTLQCTKSAGPWKMVVWDEDGFQGRRHEFTAECPSVLELGFETVRSLKVLSGAWVGFEHAGFQGQQYILERGEYPSWDAWGGNTAYPAERLTSSRPAACANHRDSRLTIFEQENFLGKKGELSDDYPSLQAMGWEGNEVGSFHVHSGAWVCSQFPGYRGFQYVLECDHHSGDYKHFREWGSHAPTFQVQSIRRIQQ [F94S] was run?
**A.** disrupting interaction strength

Variants of: B1
Conditions: with gli1_human GLI1, P08151
Chain of gli1_human GLI1, P08151 (P08151 whole entry): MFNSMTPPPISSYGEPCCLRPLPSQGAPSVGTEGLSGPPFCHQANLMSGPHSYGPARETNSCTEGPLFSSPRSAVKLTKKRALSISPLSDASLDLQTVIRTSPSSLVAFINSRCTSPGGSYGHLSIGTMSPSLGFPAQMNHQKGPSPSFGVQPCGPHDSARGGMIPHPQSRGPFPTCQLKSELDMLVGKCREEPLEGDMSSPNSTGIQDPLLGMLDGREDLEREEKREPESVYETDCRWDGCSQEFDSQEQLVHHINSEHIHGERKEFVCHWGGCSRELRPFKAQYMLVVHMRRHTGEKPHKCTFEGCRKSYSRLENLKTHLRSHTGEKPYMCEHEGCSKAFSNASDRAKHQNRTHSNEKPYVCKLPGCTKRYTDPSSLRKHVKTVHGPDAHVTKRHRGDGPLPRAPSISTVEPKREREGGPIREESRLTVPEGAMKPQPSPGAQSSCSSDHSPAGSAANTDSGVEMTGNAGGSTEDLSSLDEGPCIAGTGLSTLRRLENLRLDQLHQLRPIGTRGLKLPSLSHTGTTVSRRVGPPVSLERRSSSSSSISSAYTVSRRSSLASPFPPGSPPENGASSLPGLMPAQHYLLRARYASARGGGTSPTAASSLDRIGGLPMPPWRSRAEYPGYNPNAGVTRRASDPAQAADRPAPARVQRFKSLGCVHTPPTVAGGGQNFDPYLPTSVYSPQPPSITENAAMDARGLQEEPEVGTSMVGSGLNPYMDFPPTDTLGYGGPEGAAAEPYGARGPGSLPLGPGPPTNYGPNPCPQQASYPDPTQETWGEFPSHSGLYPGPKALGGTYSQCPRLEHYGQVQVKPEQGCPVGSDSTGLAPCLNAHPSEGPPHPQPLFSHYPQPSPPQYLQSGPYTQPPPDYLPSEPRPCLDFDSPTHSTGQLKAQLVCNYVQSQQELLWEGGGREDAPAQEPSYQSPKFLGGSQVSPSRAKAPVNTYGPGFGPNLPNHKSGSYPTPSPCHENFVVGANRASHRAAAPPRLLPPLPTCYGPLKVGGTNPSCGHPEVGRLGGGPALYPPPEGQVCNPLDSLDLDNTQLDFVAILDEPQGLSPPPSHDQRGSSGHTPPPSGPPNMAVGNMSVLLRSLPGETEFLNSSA

**Q.** With MTLQCTKSAGPWKMVVWDEDGFQGRRHEFTAECPSVLELGFETVRSLKVLSGAWVGFEHAGFQGQQYIPERGEYPSWDAWGGNTAYPAERLTSFRPAACANHRDSRLTIFEQENFLGKKGELSDDYPSLQAMGWEGNEVGSFHVHSGAWVCSQFPGYRGFQYVLECDHHSGDYKHFREWGSHAPTFQVQSIRRIQQ [L69P] as the variant, how does the “effect of a mutation on the interaction” value read?
**A.** disrupting interaction strength

**Q.** How did the “effect of a mutation on the interaction” value turn out when MTLQCTKSAGPWKMVVWDEDGFQGRRHEFTAECPSMLELGFETVRSLKVLSGAWVGFEHAGFQGQQYILERGEYPSWDAWGGNTAYPAERLTSFRPAACANHRDSRLTIFEQENFLGKKGELSDDYPSLQAMGWEGNEVGSFHVHSGAWVCSQFPGYRGFQYVLECDHHSGDYKHFREWGSHAPTFQVQSIRRIQQ [V36M] was run?
**A.** disrupting interaction strength

**Q.** For MTLQCTKSAGPWKMVVWDEDGFQGRRHEFTAECPSVLELGFETVRSLKVLSGAWVGFEHAGFQGQQYILERGEYPSWDAWGGNTAYPAERLTSSRPAACANHRDSRLTIFEQENFLGKKGELSDDYPSLQAMGWEGNEVGSFHVHSGAWVCSQFPGYRGFQYVLECDHHSGDYKHFREWGSHAPTFQVQSIRRIQQ [F94S], which “effect of a mutation on the interaction” value is on record?
**A.** disrupting interaction strength

Variants of: B1
Conditions: with ccd33_human CCDC33, Q8N5R6

**Q.** MTLQCTKSAGPWKMVVWDEDGFQGRRHEFTAECPSVLELGFETVRSLKVLSGAWVGFEHAGFQGQQYIPERGEYPSWDAWGGNTAYPAERLTSFRPAACANHRDSRLTIFEQENFLGKKGELSDDYPSLQAMGWEGNEVGSFHVHSGAWVCSQFPGYRGFQYVLECDHHSGDYKHFREWGSHAPTFQVQSIRRIQQ [L69P] was tested. Which “effect of a mutation on the interaction” value did it give?
**A.** disrupting interaction strength

**Q.** How did the “effect of a mutation on the interaction” value turn out when MTLQCTKSAGPWKMVVWDEDGFQGRRHEFTAECPSMLELGFETVRSLKVLSGAWVGFEHAGFQGQQYILERGEYPSWDAWGGNTAYPAERLTSFRPAACANHRDSRLTIFEQENFLGKKGELSDDYPSLQAMGWEGNEVGSFHVHSGAWVCSQFPGYRGFQYVLECDHHSGDYKHFREWGSHAPTFQVQSIRRIQQ [V36M] was run?
**A.** disrupting interaction strength

**Q.** MTLQCTKSAGPWKMVVWDEDGFQGRRHEFTAECPSVLELGFETVRSLKVLSGAWVGFEHAGFQGQQYILERGEYPSWDAWGGNTAYPAERLTSSRPAACANHRDSRLTIFEQENFLGKKGELSDDYPSLQAMGWEGNEVGSFHVHSGAWVCSQFPGYRGFQYVLECDHHSGDYKHFREWGSHAPTFQVQSIRRIQQ [F94S] was tested. Which “effect of a mutation on the interaction” value did it give?
**A.** disrupting interaction strength

Variants of: B2
Conditions: with ikzf3_human IKZF3, Q9UKT9
Target sequence in this assay (Q9UKT9 whole entry): as the sequence (Q9UKT9 whole entry) above

**Q.** With P77T as the variant, how does the “effect of a mutation on the interaction” value read?
**A.** disrupting interaction strength

**Q.** For M448T, which “effect of a mutation on the interaction” value is on record?
**A.** with no effect

**Q.** Which “effect of a mutation on the interaction” value does the source give for R159W here?
**A.** with no effect

Variants of: B2
Conditions: with kctd4_human KCTD4, Q8WVF5
Chain of kctd4_human KCTD4, Q8WVF5 (Q8WVF5 whole entry): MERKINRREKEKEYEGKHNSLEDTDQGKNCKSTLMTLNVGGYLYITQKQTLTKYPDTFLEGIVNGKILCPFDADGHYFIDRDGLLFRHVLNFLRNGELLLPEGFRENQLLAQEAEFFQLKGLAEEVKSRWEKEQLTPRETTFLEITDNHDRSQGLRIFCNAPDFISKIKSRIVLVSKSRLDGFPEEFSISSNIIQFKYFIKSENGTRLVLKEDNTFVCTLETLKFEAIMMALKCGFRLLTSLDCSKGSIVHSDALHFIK

**Q.** Which “effect of a mutation on the interaction” value does the source give for P77T here?
**A.** disrupting interaction strength

**Q.** For M448T, which “effect of a mutation on the interaction” value is on record?
**A.** with no effect

**Q.** For R159W, which “effect of a mutation on the interaction” value is on record?
**A.** with no effect

Variants of: B2
Conditions: with rim3a_human RIMBP3, Q9UFD9

**Q.** With P77T as the variant, how does the “effect of a mutation on the interaction” value read?
**A.** disrupting interaction strength

**Q.** For M448T, which “effect of a mutation on the interaction” value is on record?
**A.** with no effect

**Q.** R159W was tested. Which “effect of a mutation on the interaction” value did it give?
**A.** with no effect

Variants of: B2
Conditions: with trip6_human TRIP6, Q15654
Target sequence in this assay (Q15654 whole entry): as the sequence (Q15654 whole entry) above

**Q.** For P77T, which “effect of a mutation on the interaction” value is on record?
**A.** disrupting interaction strength

**Q.** M448T was tested. Which “effect of a mutation on the interaction” value did it give?
**A.** with no effect

**Q.** Which “effect of a mutation on the interaction” value does the source give for R159W here?
**A.** with no effect

Variants of: B2
Conditions: with KRT15, P19012
Chain of KRT15, P19012 (P19012 whole entry): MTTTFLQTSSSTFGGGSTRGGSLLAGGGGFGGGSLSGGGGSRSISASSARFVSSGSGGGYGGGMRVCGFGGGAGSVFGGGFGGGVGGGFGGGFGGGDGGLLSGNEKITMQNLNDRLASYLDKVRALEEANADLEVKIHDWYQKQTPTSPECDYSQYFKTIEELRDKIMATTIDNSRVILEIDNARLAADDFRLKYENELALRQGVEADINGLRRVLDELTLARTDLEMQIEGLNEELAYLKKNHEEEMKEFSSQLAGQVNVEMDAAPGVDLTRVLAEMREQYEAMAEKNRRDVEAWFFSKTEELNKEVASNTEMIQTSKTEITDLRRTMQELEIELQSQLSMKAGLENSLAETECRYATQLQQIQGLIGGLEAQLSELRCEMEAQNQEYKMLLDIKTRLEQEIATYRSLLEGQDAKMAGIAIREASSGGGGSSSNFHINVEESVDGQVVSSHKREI

**Q.** How did the “effect of a mutation on the interaction” value turn out when P77T was run?
**A.** disrupting interaction strength

**Q.** For M448T, which “effect of a mutation on the interaction” value is on record?
**A.** with no effect

**Q.** Which “effect of a mutation on the interaction” value does the source give for R159W here?
**A.** with no effect

Variants of: B2
Conditions: with TCF4, P15884-3
Chain of TCF4, P15884-3 (P15884 other isoform, or with tags, fused parts or gaps): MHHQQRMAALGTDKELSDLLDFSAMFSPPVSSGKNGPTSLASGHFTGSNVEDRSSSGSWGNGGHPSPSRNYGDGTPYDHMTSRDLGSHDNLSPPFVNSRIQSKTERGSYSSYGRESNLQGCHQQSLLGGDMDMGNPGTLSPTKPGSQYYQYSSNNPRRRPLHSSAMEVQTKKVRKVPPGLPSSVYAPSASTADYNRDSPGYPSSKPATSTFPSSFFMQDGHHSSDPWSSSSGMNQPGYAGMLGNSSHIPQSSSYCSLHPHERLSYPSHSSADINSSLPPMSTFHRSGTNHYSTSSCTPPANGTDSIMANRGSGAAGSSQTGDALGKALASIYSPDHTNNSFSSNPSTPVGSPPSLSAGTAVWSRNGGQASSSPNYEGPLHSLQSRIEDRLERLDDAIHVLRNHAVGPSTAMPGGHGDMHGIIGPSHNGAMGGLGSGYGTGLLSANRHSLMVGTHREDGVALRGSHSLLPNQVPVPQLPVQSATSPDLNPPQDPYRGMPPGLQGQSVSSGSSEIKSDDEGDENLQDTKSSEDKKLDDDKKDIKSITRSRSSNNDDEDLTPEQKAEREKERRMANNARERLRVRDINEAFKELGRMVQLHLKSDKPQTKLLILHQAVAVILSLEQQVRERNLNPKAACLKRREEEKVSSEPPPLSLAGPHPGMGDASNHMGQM

**Q.** P77T was tested. Which “effect of a mutation on the interaction” value did it give?
**A.** disrupting interaction strength

**Q.** M448T was tested. Which “effect of a mutation on the interaction” value did it give?
**A.** with no effect

**Q.** How did the “effect of a mutation on the interaction” value turn out when R159W was run?
**A.** with no effect

Variants of: B2
Conditions: with goga2_human GOLGA2, Q08379
Chain of goga2_human GOLGA2, Q08379 (Q08379 whole entry): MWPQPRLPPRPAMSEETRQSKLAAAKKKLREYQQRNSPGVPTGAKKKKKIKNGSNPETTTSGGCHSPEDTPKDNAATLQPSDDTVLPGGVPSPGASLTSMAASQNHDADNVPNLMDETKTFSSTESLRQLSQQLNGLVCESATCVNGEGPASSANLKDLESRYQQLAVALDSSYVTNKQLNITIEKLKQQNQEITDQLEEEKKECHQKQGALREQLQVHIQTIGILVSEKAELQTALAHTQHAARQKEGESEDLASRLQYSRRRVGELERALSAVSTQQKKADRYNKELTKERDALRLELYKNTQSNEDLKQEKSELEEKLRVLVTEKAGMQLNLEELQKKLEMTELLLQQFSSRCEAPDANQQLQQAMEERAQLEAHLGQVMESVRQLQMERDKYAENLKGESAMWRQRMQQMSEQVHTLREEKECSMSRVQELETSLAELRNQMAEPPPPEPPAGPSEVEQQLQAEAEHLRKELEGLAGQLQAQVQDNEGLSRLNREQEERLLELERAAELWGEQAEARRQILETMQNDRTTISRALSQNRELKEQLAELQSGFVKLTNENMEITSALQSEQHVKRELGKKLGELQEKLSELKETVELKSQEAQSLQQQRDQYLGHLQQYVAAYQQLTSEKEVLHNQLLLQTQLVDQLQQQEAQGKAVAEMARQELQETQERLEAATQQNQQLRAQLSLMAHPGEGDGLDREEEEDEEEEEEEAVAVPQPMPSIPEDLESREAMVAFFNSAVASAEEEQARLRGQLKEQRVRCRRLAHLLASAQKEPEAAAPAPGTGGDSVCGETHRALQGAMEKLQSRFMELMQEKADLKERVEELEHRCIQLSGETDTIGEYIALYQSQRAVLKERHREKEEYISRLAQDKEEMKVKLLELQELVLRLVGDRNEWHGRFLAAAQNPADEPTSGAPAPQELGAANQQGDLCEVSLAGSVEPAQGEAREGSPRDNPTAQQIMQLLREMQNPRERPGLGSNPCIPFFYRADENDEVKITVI

**Q.** For P77T, which “effect of a mutation on the interaction” value is on record?
**A.** disrupting interaction strength

**Q.** How did the “effect of a mutation on the interaction” value turn out when M448T was run?
**A.** with no effect

**Q.** R159W was tested. Which “effect of a mutation on the interaction” value did it give?
**A.** with no effect
